Measured values reported in the supplement of paper PMC9170038.

Tested on: MS2 coat protein
Experiment: apparent KD of MS2 coat protein; higher = weaker reporter binding
Conditions: Eterna round: R107
How it was run: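 Each design's apparent KD comes from the median of binding-curve fits to its normalised clusters. Those clusters carried RNA switches transcribed on-chip from Illumina sequencing clusters. SNAP-549-labelled MS2 coat protein was titrated onto them in twofold steps (0.7 or 1.5 nM to 3 µM; per step 0.8–1.5 h down to 10–20 min). Conditions were 100 mM Tris-HCl pH 7.5, 80 mM KCl, 4 mM MgCl2, without or with constant ligand.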

[1] = input ligand: theophylline 20 uM
[2] = input ligand: theophylline 2 mM
[3] = input ligand: tryptophan 2.4 mM

Sequence	apparent KD of MS2 coat protein (input ligand: arginine 13.2 mM) [µM]	apparent KD of MS2 coat protein (input ligand: none) [µM]	apparent KD of MS2 coat protein [1] [µM]	apparent KD of MS2 coat protein [2] [µM]	apparent KD of MS2 coat protein [3] [µM]
AUACGUAACAGAAGGAGCGCACCGACAUGAGGAUCACCCAUGUGGGAUGGGACUCUUUUGGUGCAGGUAGGUCGCUGUCACGCAU [Beatattian]	0.0237	0.0414	0.0994	0.0612	0.0403
AUAUCAUAGAGUGAUACCAGACUACAUGAGGAUCACCCAUGUGACAUUUAAAUAUCAUUUGUCCCUUGGCAGCACAUUAAGUACA [JR_Nu_ExcTheophyB_Sub020]	0.0506		0.0798		0.0616
AUAUUAAUCGGAAGGAGCGGUACAUGAGGAUCACCCAUGUGCUAAGCUAGCAGAUCCCGUUACCAGGUAGGUCGCCGAGUUAUGA [Titeonra]	0.0356	0.024	0.0309	0.0295	0.0234
AUAUUAGACCUGGAUACCAGCGACAUGAGGAUCACCCAUGUAUGUGCAUCAGCCAUGAUAUGCCCUUGGCAGCCACCGAGGUCGU [YYTMULLIN]	0.0141		0.0179		0.0151
AUCAUGGCCAUCGAUACCAGCUACAUGAGGAUCACCCAUGUAAACGGCCCGGUGAGAUGUAGCCCUUGGCAGCGAAGGGUCAAGG [Ratimatiqu]	0.0124	0.0165	0.0231	0.12	0.017
AUCCAUAGCCGAAGGAGCGCAGUAGGAUGACAUGAGGAUCACCCAUGUGUGUGAUGUGGAUUGCAGGUAGGUCGCGGAGUGGGAU [Exclusion - Arginine B (Freestyle 6)]	0.035	0.0587	0.135	0.063	0.0472
AUCGUACCUGAUGAUACCAGCAAUUGCUCGUAACAUGAGGAUCACCCAUGUGAUCAGUGAUGCCCUUGGCAGCAUGAUCGGUGCA [Same State - Theophylline B (Freestyle 19)]	0.0528		0.183		0.248
AUCGUACCUGGUGAUACCAGCAAUUGCUCGUGACAUGAGGAUCACCCAUGUGGCCAGUGAUGCCCUUGGCAGCAUGGUCGGUGCA [Same State - Theophylline B (Freestyle 24)]	0.0724		0.167		0.122
AUGCAACAUGAGGAUCACCCAUGUGGUGAUACCAGUCGACAAGUAGACCCUUGGCAGCACAGCCGAUAUCGAGAGAGAUUUUUGG [theeternabot_sameState_MS2_Theo_A_23]	0.0644		0.476		0.824
AUGCCGGGCCGAAGGAGCGCAAUAGAAUGACAUGAGGAUCACCCAUGUGUGUGAUGUGGGUUGCAGGUAGGUCGCGGCCCGGCAU [#12 Exclusion - Arginine B]	0.0176	0.0421	0.0802	0.0627	0.0683
AUGUCGUUGAAUAUAGCGGCUUGGAGUGAUACCAGCAUGAUCCAAUGCCCUUGGCAGCAUAACAUGAGGAUCACCCAUGUUCCAG [SSTheo A #26]	0.0327		0.0687		0.0301
AUUCAUAACUGAAGGAGCGUGAUAUAAAUUUUUACAUGAGGAUCACCCAUGUUUCAUCGAUCACAGGUAGGUCGCAGAUUCUCAU [JR_SSArginiB_Sub012]	0.0311	0.0553	0.0591	0.0451	0.0379
AUUGUGAACCUGAUCGUAUAAUGUAGCGAUACCAGUAUAAUACAUUACCCUUGGCAGCGCGACACAUGAGGAUCACCCAUGUAAG [theeternabot_exclusion_MS2_Theo_A_10]	0.0196		0.0269		0.023
AUUUAUGGUCGUGAUACCAGACAUACAUGAGGAUCACCCAUGUGAAAUAACAUAAUUUAGGUCCCUUGGCAGCACUUUUUAAUUA [JR_Nu_SSTheophyB_Sub020]	0.0439		0.0636		0.0524
AUUUAUUGUCGUGAUACCAGACAUACAUGAGGAUCACCCAUGUUAAGUAACAUUUUUUAGGUCCCUUGGCAGCACUUUUUAAUUA [JR_Nu_SSTheophyB_Sub018]	0.0302		0.0361		0.0254
CAAGACAUGAGGAUCACCCAUGUGGUGUACCGAGGACCGGUACGGCCGCCACUCGUUCAUCGGUCGACAAGCUACCCUUCAAGGU [theeternabot_sameState_MS2_Trp_A_7]	0.0255		0.0404	0.0277	
CAAUGCGGUUAGGAUACCAGCGACACACACUUCUCACAACACAUGAGGAUCACCCAUGUCCGCCCUUGGCAGCCUUGACUAAGGU [theeternabot_exclusion_MS2_Theo_B_39]	0.0302		0.0518		0.0272
CACGAAAGAUCGGCCGCCACUAAUCGAUGUGUUCUUUCACAUGAGGAUCACCCAUGUUCUUGCGUUAGGACCGGGAUUGAGCGUG [#01 Exclusion Tryptophan B]	0.0321		0.0501	0.0524	
CACGAAAGAUCGGCCGCCACUCAUGUUUCUUACAUGAGGAUCACCCAUGUAUUUUCUUUCUUUUAGAGGACCGGGAUCGAGCGUG [#01 Same State - Tryptophan B]	0.0468		0.0784	0.0472	

Sequence	apparent KD of MS2 coat protein (input ligand: arginine 13.2 mM) [µM]	apparent KD of MS2 coat protein (input ligand: none) [µM]	apparent KD of MS2 coat protein [1] [µM]	apparent KD of MS2 coat protein [2] [µM]	apparent KD of MS2 coat protein [3] [µM]
CAGGCCUUGCCCGGUGUUCCGAAAGUGGAAGGAGCGCACAUUGGUGCAGGUAGGUCGCCACAUGAGGAUCACCCAUGUCUAGGCC [Aveatti]	0.0549	0.02	0.111	0.0225	0.0502
CAUACUUUAGUAUGACAUGUGGGCAGUGAUACCAGAUACGAAAGUAUCCCUUGGCAGCACAACAUGAGGAUCACCCAUGUAAUUA [Theophylline A 2]	0.0261		0.052		0.0373
CAUCCUAGUACAUGAGGAUCACCCAUGUAUCGAGGACCGGUACGGCCGCCACUCGAAUGGCGGAUCGUUGAUCCUUUAGGAUGAA [Tryp A Ex t4]	0.0165	0.0143	0.0207	0.0209	0.0192
CAUGGGCUAAGACAUUAUUCGUAUUUUGAUACCAGAAAAUUGGCGUUCCCUUGGCAGCAAUAUACAUGAGGAUCACCCAUGUCCC [theeternabot_exclusion_MS2_Theo_A_23]	0.0388		0.0709		0.0583
CCAUCUUCAUCGGCCGCCACUGAACCAAGGAGACAUGAGGAUCACCCAUGUAUGGGAAACCAUCAUAGGACCGGGAUGAAGGUGG [doubleHookLine]	0.036		0.0561	0.0481	
CCAUGCGUAGGAAGGAGCGCAUACUUCACAUGAGGAUCACCCAUGUCGAGACGUGAGUCAGUGCAGGUAGGUCGCCUACGCAUGG [Same State - Arginine B (Freestyle 27)]	0.0166	0.0176	0.0243	0.0206	0.0194
CCCUGGGUGGGAAGGAGCGCAUAGUGAACAUGAGGAUCACCCAUGUGCAGACGUGAGUCAUUGCAGGUAGGUCGCCCACCCAGGG [SS-ArgB22]	0.0102	0.0189	0.0214	0.0302	0.0209
CCGAACAUGAGGAUCACCCAUGUUAGGGAUACCAGCUCAGACAUGGGCCCUUGGCAGCUCUAUAGCUGACGAAAGUCAGCAUCGG [#15 SameState-TheophyllineA]	0.0361	0.035	0.0463	0.0237	0.0354
CCGGAGACCUCGGCCGCCACUCUCCAUGAGGAUCUCCCAUGUAACAUGAGGAUCACCCAUGUGCUGAGGACCGGGAGGUCCUCCU [Same State Tryptophan B GF 20]	0.0187	0.0132	0.0164	0.017	0.0209
CCGGGCCCGGGCGACCGGGCCCGGACUGAAGGAGCGGGAAUAAACCCAGGUAGGUCGCAGAGAUCCACAUGAGGAUCACCCAUGU [!0.V]	0.0317	0.0309	0.0496	0.0509	0.0486
CCUCGAUUUUGAUACCGAUAUGUCUUUGAUACCAGCGCCAUAGUACGCCCUUGGCAGCAAGAAACAUGAGGAUCACCCAUGUUAA [theeternabot_exclusion_MS2_Theo_A_36]	0.0169		0.0264		0.0167
CCUCGUGCAACAUGAGGAUCACCCAUGUACCGAGGACCGGUACGGCCGCCACUCGAAAACGAGUACCAUUAGCGAAAGCUGAUGG [Trp A SS mod1]	0.0119	0.0131	0.0164	0.0142	0.0141
CCUGAUAACUGAAGGAGCGAGAAACCCUACAUGAGGAUCACCCAUGUAUACACGGGAACUUCUCAGGUAGGUCGCAGUAUGUCGG [Rienat]	0.0712	0.0802	0.106	0.145	0.093
CCUUAACAUGAGGAUCACCCAUGUCUGGAUACCAGAUACAGAUAAAUCCCUUGGCAGCCAAAAUAUGAAAGAAAUAAAAUAAGAA [theeternabot_sameState_MS2_Theo_A_29]	0.0275		0.0663		0.0502
CGACGAGACCUGGAUACCAGCGACAUGAGGAUCACCCAUGUAUGUGGAUCAGCCAUGAUAUGCCCUUGGCAGCCACCGAGGUCGG [PPPMULLIN]	0.00781	0.0116	0.0208	0.0317	0.0123
CGAGCUGACGGAAGGAGCGAAGCCUACUCGGUGUUCCCACAUGAGGAUCACCCAUGUGGGCUUCAGGUAGGUCGCCGAACAGUCG [Vecequlala]	0.0261	0.0407	0.061	0.0869	0.0324
CGAGUGCUGUCGGCCGCCACUGCACAUGAGGAUCACCCAUGUAAAAGCUGGCUGUGACUGGUGUUCAGGACCGGGACAGGGUCUU [Inriedzaan]	0.0109		0.0138	0.0117	
CGCCACUCGAGUGAUCCUCACGAGUGGCUACGAGGACCGGUACGGCCGCCACUCGAAUUAACAUGAGGAUCACCCAUGUAAUCUA [Brourdmod08]	0.03		0.2	0.322	
